The labels stand for the following.
B1: TPR t1 (parent)
chain: GACCAAUCUGCCCUCAGAGCUCGAGAACAUCUUCGGAUGCAGAGGAGGCAGGCUUCGGUGGCGCGAUAGCGCCAACGUCCUCAACCUCCAAUGCAUCCCACCACAUGAUGAUGCCUGAAGAGCCUUGGUUUUUUG

Variants of B1 are the subject of this series. Kind of series: polymerase ribozyme fitness, log enrichment relative to wild type (log ratio); higher = more active; in vitro selection for triplet polymerase activity. The procedure, abridged: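 Libraries of mutants in each subunit of a heterodimeric triplet polymerase ribozyme were generated by PCR and transcribed. In triplicate, each went through one in vitro selection round: annealing with biotinylated primer, partner subunit and triplets; frozen incubation at −7 °C; gel excision of extended constructs; streptavidin-bead capture; RT-PCR. Fitness, taken from Illumina sequencing of input and output libraries, is the logarithm of a genotype's enrichment over wild-type enrichment, averaged across replicates with inverse-variance weights. The logarithm is base 2, and genotypes needed ≥10 input reads and ≥1 read per output to be kept.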
On to GACCAAUCUGCCCUUAGAGCUCGAGAACAUCUUCGGAUUCAGAGGAGGCAGACUUCGGUGGCGCGAUAGCGCCAACGUCCUCAACCUCCAAUGCAUCCCACCACAUGAUGAUGCCUGAAGAGCCUUGGUUUUUUG [C15U G39U G52A], for which the “polymerase ribozyme fitness (log ratio)” value was -3.14.

GACCAAUCUGCCCUCAGAGCUAGAGAACAUCUUCGGAUGCAGAGGAGGCAGGCUUCGGUGGCGCGAUAGCUCCAACGUCCUCAACCUCCAAUGCAUCCCACCACAUGAUGAUGCCUGAAGAGCCUUGGUUUUUUG [C22A G71U]: the “polymerase ribozyme fitness (log ratio)” value was -5.61.

Regarding GACCAAUCUGCCAUCAGAGCUCGAGAACAUCUUCGGAUGCAGAGGAGGCAGGCUUCGGUGGCGCGAUAGCGCCAACGUCCACAACCUUCAAUGCAUCCCACCACAUGAUAAUGCCUGAAGCGCCUUGGUUUUUUG [C13A U81A C88U G110A A121C], the “polymerase ribozyme fitness (log ratio)” value is -2.71.

As for GACCAAUCUGCCCUCAGAGCUCGAGAACAUCUUCGGAUGCAGAGGAGGCAGGCUUCGCUCGCGCGAUAGCGCCAACGUCCUCAACCUCCAAUGCAUCCCACCACAUGAUGUUGCCUGAAGAGCCUUGGUUUUUUG [G58C G60C A111U], the “polymerase ribozyme fitness (log ratio)” value is -3.12.

For GACCAAUCUGCCCUCAGAGCUCGAGAACAUCUUCGGAUGCAGAGGAGGCAUGCUGCGGUGGCGCGAUAGCGCCAACGUCCUCAACCUCCAAUGCAUCCCACUACAUGAUGAUGCCUGAAGAGCCUUGGUUUUUUG [G51U U55G C102U], the “polymerase ribozyme fitness (log ratio)” value is -6.73.

For the variant GACCAAUGUGCCCUCAGAGCUCGAGAACAUCUUCGGAUGCAGAGGAGGCUGGCUUAGGUGGCGCGAUAGCGCCAACGUGCUCAACCUCCAAUGCAUCCCGCCACAUGAUGUUGCCUGAAGAGCCUUGGUUUUUUG [C8G A50U C56A C79G A100G A111U], the “polymerase ribozyme fitness (log ratio)” value is -5.8.

Take GACCAAUCUGCCCUCAGAGCUCGAGAACAUCUUCGGAUGCAGAGGAGGCAGGUGUUGGUGGCGCGAUAGCGCCAACGUCCUCAACCUCCAAUGCAUCCCACCACAUGAUGAUGCCUGAAGAGCCUUGGCUUUGUG [C53U U54G C56U U129C U133G]: the “polymerase ribozyme fitness (log ratio)” value was -0.985.

As for GACCAAUCUGCCCUCAGAGCUCGAGAACAUCUUCGGAUGCAGAGGAGGCAGGCUUCGGUGGCGCGAUAGCGCCAACGUCCUCAACCUCCAAUGCAUCCCACCACAGGAUGAUGGCUGAAGAGCCUUGGUUUUUUG [U106G C114G], the “polymerase ribozyme fitness (log ratio)” value is -3.54.

For GACCUAUCUGCCCUCAGAGCUCGAGAACAUCUUCGGAUGCAGAGGAGGCAGGCUUCGGUGGCGCGAUAGCGGCAACGUCCCCAACCUCCAAUGCAUCCCACCACAUGAUGAUGCCUGAAGAGCCUUGGUUUUUUG [A5U C72G U81C], the “polymerase ribozyme fitness (log ratio)” value is -1.14.

Consider GACCAAUCUGCUCUCAGAGCUCGAGAACAUCUUCGGAUGCAGAGGAGGCAGGCUUCGGUUGCGCGAUAGCGCCAACGUCCUCAACCUCCAAUGCAUCCCACCACAUGAUGAUGCCUGAAGAGCCUUGGUUUUUUG [C12U G60U], for which the “polymerase ribozyme fitness (log ratio)” value amounted to 0.415.

Consider GACCAAUCUGCCCUCAGAGCUCGAGAACAUCUUCGGAUGCAGAGGAGGCAGGCUUCGGUGGCGCGAUAGCGUCAACGUGCUCAACCUCCAAUGCAUCCCACCACAUGAUGAUACCUGAAGAGCCUUGGUUUUUUG [C72U C79G G113A], for which the “polymerase ribozyme fitness (log ratio)” value is -4.23.

As for GACCCAUCUGCCCUCAGAGCUCGAGAACAUCUUCGGAUGCAGAGGAGGCAGGCUUCGGUGGCGCGAUAGCGCCAACGUCCUCAACCUCCAAUGCAUCUCACCACAUGAUGAAGCCUGAAGAGCCUUGCUUUUUUG [A5C C98U U112A G128C], the “polymerase ribozyme fitness (log ratio)” value was -4.48.

On to GACCAAUCUGCCCUCAGAGCUCGAGAAAAUCUUCGGAUGCAGAGGAGGCAGGCUUCGGUGGCGCGAUAGCGCCAACGUCCUCAACCUCCAAUGCAUCCCACCACAUGAUGAUGCCUGAUGAGCCUUGGUUUUUUG [C28A A119U], for which the “polymerase ribozyme fitness (log ratio)” value was -4.75.

In the case of GACCAAUCUGCCCUCAGAGCUCGAGAACAUCUUCGGAUGCACAGGAGGCAGGCUUCGGUGGGGCGAUAGCGCCAACGUCCUCAACCUCCAAUGCAUCCCACCACAUGAUGAUGCCUGAAGAGCCUUGGUUUUUUG [G42C C62G], the “polymerase ribozyme fitness (log ratio)” value was -4.74.

With GACCAAUUUGCCCUCAGUGCUCGAGAACAUCUUCGGAUGCAGAGGAGGCAGGCUUCGGUGGCGCGAUAGCGCCAACGUCCUCAACCUCCAAUGCAUCCCACCACAUGAUGAUGCCUGAAGAGCCUUGGUUUUUUG [C8U A18U], the “polymerase ribozyme fitness (log ratio)” value was -1.03.

Regarding GACCAAUCUGCCCUCAGAGCUCGAGGACAUCUUCGGAUGCAGAGGAGGCAGGCUUCGGUGGCGCGAUAGCGCCAACGUCCUCAACCUCCAAUACAUCCCACCACAUGAUGAUGACUGAAGAGCCUUGGUUUUUUG [A26G G93A C114A], the “polymerase ribozyme fitness (log ratio)” value is -3.14.

On to GACCAGUCUGCCCUCAGAGCUCGAGAACAUCUUCGGAUGCGGAGGAGGCAGGCUUCGGUGGCGCGAUAGCGCCAACGUCCUCAACCACCAAUGCAUCCCACCACAUGAUAAUGCCUGAAGAGCCGUGGUUUUUUG [A6G A41G U87A G110A U125G], for which the “polymerase ribozyme fitness (log ratio)” value was -3.92.

With GACCAAUGUGCCCUCAGAGCUCGAGAACAUCUUCGGAUGCAGAGGAGGCAGGCUUCGGUGGCGCGAUAGCGCCAACGUCCUCAACCUCCAAUGCAUCCCACCACAUGAUGAUGCCUGAACAGCCUUGGUUUUUUG [C8G G120C], the “polymerase ribozyme fitness (log ratio)” value worked out at 2.34.

As for GACCAAUCUGCCCUCAGAGCUCGAGAACAUCUUCGGAUGCAGAGGAGGCAGGCUUCGGUGGCGCGAUAGCGCCAACGUCCUCAACCUCCAAUACAUCCCACCACAUGAUUAUGCCUGAAGAGCCUUGGUUUUUUG [G93A G110U], the “polymerase ribozyme fitness (log ratio)” value is -2.04.

Regarding GACCAAUCUGCCCUCAGAGCUCGAGAACAUCUUCGGAUGCAGAGGAGGCAGGCUUCGGUGACGCGAUAGCGCCAACGUCCUCAACCUCCAAUGCAUCCCACCACAUGACGAUGCCUGAAGAGCCUUGGUUUUUUG [G61A U109C], the “polymerase ribozyme fitness (log ratio)” value is -2.02.

For GACCAGUCUGCCCUCAGAGCUCGAGAACAUCUUCGGAUGCAGAGGAGCCAGGCUUCGGUGGCGCGAUAGCGACAACGUCCUCAACCUCCAAUGCAUCCCACCACAUGAUGAUGCCUGAAGAGCCUUGGUUUUUUG [A6G G48C C72A], the “polymerase ribozyme fitness (log ratio)” value is 0.333.
